Measurements: paper PMC4856295 (Nature, 2016)

Key:
[1] = biological target: TATA-binding protein (TBP), subunit of endogenous human TFIID (human, UniProt P20226 1-339); experiment: cryo-EM structure
[2] = biological target: the molecule itself; experiment: cryo-EM structure

Chain of TATA-binding protein (TBP), subunit of endogenous human TFIID (P20226 whole entry): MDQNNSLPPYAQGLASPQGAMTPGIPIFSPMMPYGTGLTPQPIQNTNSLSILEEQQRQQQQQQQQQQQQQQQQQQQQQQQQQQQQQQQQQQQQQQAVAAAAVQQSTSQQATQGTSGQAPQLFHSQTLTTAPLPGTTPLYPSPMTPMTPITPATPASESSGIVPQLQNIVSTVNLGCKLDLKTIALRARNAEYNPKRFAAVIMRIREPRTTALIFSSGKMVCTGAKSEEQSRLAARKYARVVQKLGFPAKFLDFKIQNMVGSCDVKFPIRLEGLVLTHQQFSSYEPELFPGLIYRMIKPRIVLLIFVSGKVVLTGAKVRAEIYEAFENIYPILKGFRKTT

B1: human TFIIA (conserved three-subunit core TFIIA) (complex)
chain 1: ANSANTNTVPKLYRSVIEDVINDVRDIFLDDGVDEQVLMELKTLWENKLMQSRAVDG
chain 2: GAEDGQVEEEPLNSEDDVSDEEGQELFDTENVVVCQYDKIHRSKNKWKFHLKDGIMNLNGRDYIFSKAIGDAEW
chain 3: AYQLYRNTTLGNSLQESLDELIQSQQITPQLALQVLLQFDKAINAALAQRVRNRVNFRGSLNTYRFCDNVWTFVLNDVEFREVTELIKVDKVKIVACDGKNTGSNTTE
binding result [1]: binds

B2: TAF6, subunit of endogenous human TFIID (natural protein)
chain: not shown
stoichiometry N [2]: 2
